Measured values from publication PMC4439613, “TRIP13 is a protein-remodeling AAA+ ATPase that catalyzes MAD2 conformation switching” (eLife, 2015).
One block for each molecule: values may come before it.

Experiments:
PCH-2 = target: T1, PCH-2 (Caenorhabditis elegans, UniProt Q09535); test: X-ray crystal structure, […] Å; format: binding; conditions: ATPase active site of chains B and E; ADP co-purified, no nucleotide added
T1 construct: full-length (424 residues), N-terminal His6 tag removed with TEV protease, E. coli Rosetta 2 (DE3) pLysS
T1 sequence (Q09535 1-424): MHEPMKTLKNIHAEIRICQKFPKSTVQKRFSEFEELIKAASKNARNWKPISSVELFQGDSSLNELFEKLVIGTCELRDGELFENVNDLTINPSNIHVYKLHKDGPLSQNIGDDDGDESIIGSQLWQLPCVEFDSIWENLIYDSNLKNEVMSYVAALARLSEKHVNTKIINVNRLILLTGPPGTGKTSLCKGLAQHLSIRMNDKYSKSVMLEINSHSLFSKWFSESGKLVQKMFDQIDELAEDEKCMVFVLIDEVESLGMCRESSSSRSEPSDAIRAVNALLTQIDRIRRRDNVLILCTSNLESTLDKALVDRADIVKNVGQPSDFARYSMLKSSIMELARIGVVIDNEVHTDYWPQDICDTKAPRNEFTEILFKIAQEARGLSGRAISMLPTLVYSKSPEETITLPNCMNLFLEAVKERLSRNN

M. musculus TRIP13^E253Q [1] = target: T2, M. musculus TRIP13^E253Q (M. musculus, UniProt Q3UA06 1-432, E253Q); test: SEC; equimolar (10 nanomoles each) TRIP13^E253Q, p31(comet) and C-MAD2^R133A in 300 μl, 20 mM Tris-HCl pH 7.5, 300 mM NaCl, 2 mM ATP, on ice 30 min; Superdex 200 Increase 10/300 GL with 0.1 mM ATP; Coomassie gels of fractions; conditions: both partners purified
T2 construct: TRIP13, M. musculus, full length, Walker B mutation E253Q; also called Walker B mutant; ATP hydrolysis-defective TRIP13; source: E. coli Rosetta 2 (DE3) pLysS, purified (Ni-NTA, Hitrap Q ion exchange, Superdex 200 SEC); not shown: His6, N-terminal, cleaved
T2 sequence (looked up): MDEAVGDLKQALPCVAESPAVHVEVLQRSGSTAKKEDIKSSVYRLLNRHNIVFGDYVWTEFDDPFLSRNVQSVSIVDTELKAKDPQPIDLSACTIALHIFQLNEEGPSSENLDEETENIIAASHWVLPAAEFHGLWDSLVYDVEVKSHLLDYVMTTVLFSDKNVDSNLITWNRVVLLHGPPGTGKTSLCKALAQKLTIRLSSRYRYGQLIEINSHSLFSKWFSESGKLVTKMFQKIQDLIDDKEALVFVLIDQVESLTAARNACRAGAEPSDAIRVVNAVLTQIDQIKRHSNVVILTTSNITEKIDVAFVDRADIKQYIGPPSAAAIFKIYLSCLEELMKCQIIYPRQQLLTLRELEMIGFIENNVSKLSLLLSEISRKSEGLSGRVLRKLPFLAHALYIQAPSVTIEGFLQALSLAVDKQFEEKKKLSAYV

M. musculus TRIP13^E253Q [2] = target: T2, M. musculus TRIP13^E253Q; test: SEC-MALS; TRIP13^E253Q with p31(comet) and C-MAD2^R133A, protocol as for the size exclusion analysis; conditions: both partners purified

Molecule: Nc1ncnc2c1ncn2[C@@H]1O[C@H](COP(=O)(O)OP(=O)(O)O)[C@@H](O)[C@H]1O [ADP]
X-ray crystal structure, 2.3 Å (PCH-2): two subunits in the hexamer (chains B and E) are bound to ADP

stoichiometry N (M. musculus TRIP13^E253Q [1]): ~6 TRIP13^E253Q : p31(comet):MAD2 (molar ratio)
stoichiometry N (M. musculus TRIP13^E253Q [2]): ~1 copy per TRIP13 hexamer
B1: M. musculus p31(comet):C-MAD2^R133A complex (complex)
chain 1: MAASGEEDMSELSPAAAPNLDWYEKPEETHAPEVDLETVIPPAQEPSNPAEPFCPRDLVPVVFPGPVSQEDCCQFTCELLKHILYQRHQLPLPYEQLKHFYRKVPQAEDTARKKAWLATEARNRKCQQALAELESVLSHLRDFFARTLVPQVLILLGGNALSPKEFYELDLSRLAPFGVDQGLNTAACLRRLFRAIFLADPFSELQTPPLMGTIVMVQGHRDCGEDWFQPKLNYRVPSRGHKLTVTLSCGRPSVPAMASEDYIWFQAPVTLKGFHE
chain 2: MAQQLAREQGITLRGSAEIVAEFFSFGINSILYQRGIYPSETFTRVQKYGLTLLTTTDPELIKYLNNVVEQLKEWLYKCSVQKLVVVISNIESGEVLERWQFDIECDKTAKEEGVRREKSQKAIQDEIRSVIAQITATVTFLPLLEVSCSFDLLIYTDKDLVVPEKWEESGPQFITNCEEVRLRSFTTTIHKVNSMVAYKTPVND
notes: p31(comet), M. musculus, full length; MAD2, M. musculus, full length, R133A, closed conformer; Heterodimer of m12 and m9; also called p31(comet):MAD2; source: formed from separately purified proteins (E. coli Rosetta 2 (DE3) pLysS); not shown: His6, N-terminal, cleaved; copies: 1 + 1
